Measurements as given in US20190175730A1 (Five Prime, published 2019).

T1: human FGFR2IIIb expressed on Ba/F3 cells (human, UniProt P21802 22-821)
T1 chain: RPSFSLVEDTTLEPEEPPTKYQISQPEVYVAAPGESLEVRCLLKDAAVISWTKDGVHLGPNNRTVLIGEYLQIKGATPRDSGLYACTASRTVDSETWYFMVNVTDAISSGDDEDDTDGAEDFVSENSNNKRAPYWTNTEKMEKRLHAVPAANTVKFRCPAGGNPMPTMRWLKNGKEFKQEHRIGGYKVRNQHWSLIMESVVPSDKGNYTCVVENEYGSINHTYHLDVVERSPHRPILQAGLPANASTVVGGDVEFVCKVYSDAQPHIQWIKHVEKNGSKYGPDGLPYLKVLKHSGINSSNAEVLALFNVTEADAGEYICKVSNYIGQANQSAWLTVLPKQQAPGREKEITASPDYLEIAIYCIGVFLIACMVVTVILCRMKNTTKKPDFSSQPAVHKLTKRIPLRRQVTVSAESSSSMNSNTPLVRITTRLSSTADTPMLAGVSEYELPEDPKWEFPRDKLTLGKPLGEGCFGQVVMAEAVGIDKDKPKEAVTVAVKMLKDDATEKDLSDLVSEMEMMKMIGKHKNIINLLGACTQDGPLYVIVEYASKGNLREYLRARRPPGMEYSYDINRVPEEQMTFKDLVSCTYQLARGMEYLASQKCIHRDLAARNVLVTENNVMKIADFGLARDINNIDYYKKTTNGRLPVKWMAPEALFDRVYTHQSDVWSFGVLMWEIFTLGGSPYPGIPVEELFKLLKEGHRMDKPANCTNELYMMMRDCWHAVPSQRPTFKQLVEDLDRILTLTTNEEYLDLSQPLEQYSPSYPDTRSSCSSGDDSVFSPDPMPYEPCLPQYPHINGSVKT


Target: T1, human FGFR2IIIb expressed on Ba/F3 cells
Test: cell-based or functional assay

Row | Binder | EC50 (ng/mL) of ADCC, LDH release
1 | afucosylated monoclonal antibody αFGFR2bA (antibody, human IgG1, kappa, Asn297 glycan lacks fucose (afucosylated; produced in FUT8-lacking Potelligent CHOK1SV cells)) heavy: not shown light: DIQMTQSPSSLSASVGDRVTITCKASQGVSNDVAWYQQKPGKAPKLLIYSASYRYTGVPSRFSGSGSGTDFTFTISSLQPEDIATYYCQQHSTTPYTFGQGTKLEIKRTVAAPSVFIFPPSDEQLKSGTASVVCLLNNFYPREAKVQWKVDNALQSGNSQESVTEQDSKDSTYSLSSTLTLSKADYEKHKVYACEVTHQGLSSPVTKSFNRGEC | 2 ng/mL
2 | fucosylated monoclonal antibody αFGFR2bF (antibody, human IgG1, kappa, Asn297 glycan contains fucose (fucosylated)) heavy: not shown light: DIQMTQSPSSLSASVGDRVTITCKASQGVSNDVAWYQQKPGKAPKLLIYSASYRYTGVPSRFSGSGSGTDFTFTISSLQPEDIATYYCQQHSTTPYTFGQGTKLEIKRTVAAPSVFIFPPSDEQLKSGTASVVCLLNNFYPREAKVQWKVDNALQSGNSQESVTEQDSKDSTYSLSSTLTLSKADYEKHKVYACEVTHQGLSSPVTKSFNRGEC | 16 ng/mL
